Test results taken from article PMC8775132, “Complement-Mediated Selective Tumor Cell Lysis Enabled by Bi-Functional RNA Aptamers”.

B1: AptC3-VI (structured_RNA)
RNA: GGGAGAAUUCAACUGCCAUCUAACCACGUAGUAAUACGGUAUGAUCCAGUUUUAAUUCUAACCAGACUGUUCAGAUGACUACAAGCUUCUGGACUCGGU
modifications: 2'-fluoro pyrimidines
B2: AptC3-IV (structured_RNA)
RNA: GGGAGAAUUCAACUGCCAUCUAGUUGCAAAAACAUGAGGAUAGCAAAGUACCAGUGCAACUAACAAGGAAAAGAAGACGGACUACAAGCUUCUGGACUCGGU
modifications: 2'-fluoro pyrimidines
B3: AptC3-III (structured_RNA)
RNA: GGGAGAAUUCAACUGCCAUCUACAGCCCCUCGGCCGCGUUCAGCGUCUAACCUUGGGCUGUAUAGAAAGGGUUUCCAGACUACAAGCUUCUGGACUCGGU
modifications: 2'-fluoro pyrimidines

How the values were obtained:
complement C3b = complement C3b (human, UniProt P01024;P01024 23-667;749-1663); assay: EMSA; 250 nM protein; 20 mM HEPES pH 7.4, 150 mM NaCl, 10 mM MgCl2, BSA and yeast RNA 1 ug/20 uL each, 45 min at 37 C; details: protein: native; copies: 1;1; label: 32P
complement iC3b [1] = molecular target: T1, complement iC3b (human, UniProt P01024;P01024;P01024 23-667;749-1303;1321-1663); assay: as above; details: protein: native; copies: 1;1;1; label: 32P
complement C3 = complement C3 (human, UniProt P01024;P01024 23-667;672-1663); assay: filter binding; 20 mM HEPES pH 7.4, 150 mM NaCl, 10 mM MgCl2, BSA and yeast RNA 1 ug/20 uL each, 45 min at 37 C; details: protein: native; copies: 1;1; label: 32P
complement iC3b [2] = molecular target: T1, complement iC3b; assay: as above; details: protein: native; copies: 1;1;1; label: 32P

Chain of complement C3b (P01024 23-667, chain 1 of 2): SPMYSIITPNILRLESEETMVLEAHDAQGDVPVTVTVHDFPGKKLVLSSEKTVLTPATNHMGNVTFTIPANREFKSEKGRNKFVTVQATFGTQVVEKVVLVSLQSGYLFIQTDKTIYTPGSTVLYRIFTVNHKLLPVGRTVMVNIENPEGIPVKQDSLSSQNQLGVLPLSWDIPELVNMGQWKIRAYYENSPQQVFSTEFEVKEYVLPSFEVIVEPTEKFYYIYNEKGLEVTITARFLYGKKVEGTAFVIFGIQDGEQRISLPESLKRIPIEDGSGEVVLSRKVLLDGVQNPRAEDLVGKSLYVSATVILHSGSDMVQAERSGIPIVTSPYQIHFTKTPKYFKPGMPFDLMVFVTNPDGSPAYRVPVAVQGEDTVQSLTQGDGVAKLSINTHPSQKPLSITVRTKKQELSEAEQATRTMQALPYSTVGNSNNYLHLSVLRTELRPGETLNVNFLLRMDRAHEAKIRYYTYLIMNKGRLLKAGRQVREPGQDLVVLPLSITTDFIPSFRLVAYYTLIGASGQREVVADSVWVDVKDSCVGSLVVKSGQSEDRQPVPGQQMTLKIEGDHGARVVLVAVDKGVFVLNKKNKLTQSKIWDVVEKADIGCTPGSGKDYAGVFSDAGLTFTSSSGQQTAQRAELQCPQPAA
Chain of complement C3b (P01024 749-1663, chain 2 of 2): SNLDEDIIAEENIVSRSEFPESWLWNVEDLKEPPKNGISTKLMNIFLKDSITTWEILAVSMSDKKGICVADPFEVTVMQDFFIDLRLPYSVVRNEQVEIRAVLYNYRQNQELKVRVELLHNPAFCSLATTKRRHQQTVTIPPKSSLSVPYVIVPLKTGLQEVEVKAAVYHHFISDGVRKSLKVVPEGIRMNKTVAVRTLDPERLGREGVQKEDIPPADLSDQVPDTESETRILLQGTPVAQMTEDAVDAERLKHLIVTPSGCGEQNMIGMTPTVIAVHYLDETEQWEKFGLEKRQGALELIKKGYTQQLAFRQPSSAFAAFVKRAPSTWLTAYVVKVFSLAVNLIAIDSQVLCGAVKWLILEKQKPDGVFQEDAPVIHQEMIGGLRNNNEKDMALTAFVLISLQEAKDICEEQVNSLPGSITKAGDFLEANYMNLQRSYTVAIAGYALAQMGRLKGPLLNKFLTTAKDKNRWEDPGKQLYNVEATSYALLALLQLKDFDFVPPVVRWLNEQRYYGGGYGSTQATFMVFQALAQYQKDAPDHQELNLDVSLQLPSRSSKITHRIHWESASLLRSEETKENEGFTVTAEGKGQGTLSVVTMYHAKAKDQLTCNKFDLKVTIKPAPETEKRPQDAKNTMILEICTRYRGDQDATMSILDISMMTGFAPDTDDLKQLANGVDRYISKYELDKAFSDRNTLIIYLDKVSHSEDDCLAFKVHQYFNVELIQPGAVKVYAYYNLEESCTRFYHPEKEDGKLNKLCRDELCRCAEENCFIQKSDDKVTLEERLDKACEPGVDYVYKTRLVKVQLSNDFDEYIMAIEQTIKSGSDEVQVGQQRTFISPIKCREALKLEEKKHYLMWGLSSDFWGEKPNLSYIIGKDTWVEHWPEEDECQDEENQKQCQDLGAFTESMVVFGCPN
T1 sequence (P01024 23-667, chain 1 of 3): as the sequence (P01024 23-667, chain 1 of 2) above
T1 sequence (P01024 749-1303, chain 2 of 3): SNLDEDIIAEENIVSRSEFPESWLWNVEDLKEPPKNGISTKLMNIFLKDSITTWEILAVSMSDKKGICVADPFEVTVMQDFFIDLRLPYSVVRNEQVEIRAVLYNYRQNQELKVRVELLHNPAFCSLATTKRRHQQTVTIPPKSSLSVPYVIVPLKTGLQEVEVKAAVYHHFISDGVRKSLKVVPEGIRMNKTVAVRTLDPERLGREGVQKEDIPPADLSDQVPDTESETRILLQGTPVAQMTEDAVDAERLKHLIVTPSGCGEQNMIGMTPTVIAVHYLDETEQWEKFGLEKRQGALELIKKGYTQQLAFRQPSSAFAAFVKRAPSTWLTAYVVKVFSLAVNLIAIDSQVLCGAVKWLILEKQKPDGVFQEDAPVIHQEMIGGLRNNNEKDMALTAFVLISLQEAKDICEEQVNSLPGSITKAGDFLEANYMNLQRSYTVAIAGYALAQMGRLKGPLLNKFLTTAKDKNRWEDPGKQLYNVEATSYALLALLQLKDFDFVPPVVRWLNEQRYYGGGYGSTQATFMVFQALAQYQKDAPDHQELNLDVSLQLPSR
T1 sequence (P01024 1321-1663, chain 3 of 3): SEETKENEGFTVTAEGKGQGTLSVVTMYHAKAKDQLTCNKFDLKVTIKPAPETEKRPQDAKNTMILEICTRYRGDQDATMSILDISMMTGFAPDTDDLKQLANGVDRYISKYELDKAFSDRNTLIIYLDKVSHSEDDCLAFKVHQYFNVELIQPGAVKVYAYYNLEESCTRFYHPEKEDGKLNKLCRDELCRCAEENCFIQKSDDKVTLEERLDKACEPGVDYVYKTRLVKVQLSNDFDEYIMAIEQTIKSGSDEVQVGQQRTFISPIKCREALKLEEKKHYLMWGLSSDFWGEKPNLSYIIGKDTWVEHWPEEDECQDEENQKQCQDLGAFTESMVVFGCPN
Chain of complement C3 (P01024 23-667, chain 1 of 2): as the sequence (P01024 23-667, chain 1 of 2) above
Chain of complement C3 (P01024 672-1663, chain 2 of 2): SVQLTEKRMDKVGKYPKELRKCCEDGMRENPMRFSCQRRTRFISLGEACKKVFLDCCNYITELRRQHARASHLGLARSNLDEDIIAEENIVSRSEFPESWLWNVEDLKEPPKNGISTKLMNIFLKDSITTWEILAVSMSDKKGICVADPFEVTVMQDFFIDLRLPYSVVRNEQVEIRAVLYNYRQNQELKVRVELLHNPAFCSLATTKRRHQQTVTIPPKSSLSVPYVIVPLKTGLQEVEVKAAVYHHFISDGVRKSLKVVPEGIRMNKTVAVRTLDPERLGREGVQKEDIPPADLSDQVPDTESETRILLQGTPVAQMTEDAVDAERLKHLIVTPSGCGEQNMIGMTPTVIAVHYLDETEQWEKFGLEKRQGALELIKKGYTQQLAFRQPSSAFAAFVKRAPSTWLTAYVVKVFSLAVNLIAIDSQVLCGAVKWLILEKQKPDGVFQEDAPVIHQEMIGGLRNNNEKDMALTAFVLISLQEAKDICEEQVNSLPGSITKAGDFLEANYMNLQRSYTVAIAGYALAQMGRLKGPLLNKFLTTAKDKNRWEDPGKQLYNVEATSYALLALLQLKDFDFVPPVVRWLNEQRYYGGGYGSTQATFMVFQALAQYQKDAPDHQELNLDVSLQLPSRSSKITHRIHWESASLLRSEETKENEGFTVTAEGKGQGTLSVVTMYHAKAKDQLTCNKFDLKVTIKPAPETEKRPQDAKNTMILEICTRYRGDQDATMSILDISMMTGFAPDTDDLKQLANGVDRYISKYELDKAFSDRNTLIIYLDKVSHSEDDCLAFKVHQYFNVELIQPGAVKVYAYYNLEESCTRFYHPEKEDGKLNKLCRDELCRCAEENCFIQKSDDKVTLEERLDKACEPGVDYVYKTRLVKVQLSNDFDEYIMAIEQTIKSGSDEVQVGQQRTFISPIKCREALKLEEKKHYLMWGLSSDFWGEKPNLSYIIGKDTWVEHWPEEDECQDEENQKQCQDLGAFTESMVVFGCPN

Row | Binder | binding result (complement C3b) | binding result (complement iC3b [1]) | Kd (complement C3) [nM] | Kd (complement iC3b [2]) [nM]
1 | B1 | binds | – | – | –
2 | B2 | binds | binds | – | –
3 | B3 | – | – | 17 | 14.5
